Results from patent US7189506B1, “DNA binding compound-mediated molecular switch system” (Genelabs Technologies, Inc.).

Experiments:
[1] = test system: LacR; conditions: modified LacR DNA response sequence SEQ ID NO:35
[2] = test system: p50 NF-κB; assay: Gel mobility shift assay, displacement of p50 NF-kB; type: binding; conditions: JF102 oligonucleotide
Excerpt: A purified Thioredoxin-p50 NF-kB fusion protein (p50C) (Genelabs Technologies, Inc.) was used to generate five oligonucleotides comprising an NF-kB DNA response element and one or two overlapping binding sites for the AT-rich binder, 21x.
The exemplified NF-kB binding sites, […] (SEQ ID NO:29) and […] (SEQ ID NO:30) are present in the Igk and IL-6 promoters, respectively.
Oligonucleotides JF101 (SEQ ID NO:31) and 102 (SEQ ID NO:32), have compound binding sequences overlapping the right side of the NF-kB DNA response element, while in the case of JF103 (SEQ ID NO:33), the overlaps are from both sides (FIG. 7).

[3] = test system: UL9-KRAB chimeric repressor (ULKRAB) (Herpes simplex virus type 1?); assay: cell_activity; conditions: 0.8 to 1 ug pULKRAB
[4] = test system: UL9-VP16 chimeric activator (ULVP) (Herpes simplex virus type 1?); assay: cell_activity; conditions: 25 ng pULVP, HeLa
[5] = molecular target: T1, LacR (lac repressor) (UniProt P03023 P03023:1-360); assay: EMSA; displaced by 21x more efficiently than by IPTG; conditions: chain copies: 4; label: 32P
T1 sequence (P03023 whole entry, the tested form may be a part, one chain of several): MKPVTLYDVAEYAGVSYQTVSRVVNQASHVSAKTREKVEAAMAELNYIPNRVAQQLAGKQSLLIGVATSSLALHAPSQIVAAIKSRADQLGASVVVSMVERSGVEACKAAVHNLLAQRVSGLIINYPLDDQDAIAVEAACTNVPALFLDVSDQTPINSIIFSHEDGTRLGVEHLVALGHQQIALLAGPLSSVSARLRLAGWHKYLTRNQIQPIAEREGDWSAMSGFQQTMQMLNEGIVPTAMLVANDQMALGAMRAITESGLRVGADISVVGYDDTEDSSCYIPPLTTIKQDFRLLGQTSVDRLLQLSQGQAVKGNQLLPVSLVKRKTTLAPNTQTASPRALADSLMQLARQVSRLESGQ

[6] = molecular target: T2, GST-UL9 (UL9 C-terminal DNA-binding domain) (Herpes simplex virus type 1?, UniProt P10193 P10193:535-851); assay: EMSA; 10 nM GST-UL9; 21x displacement most efficient with overlap at 3' end of site; conditions: tags: GST fusion, pGEX-UL9 (Genelabs); label: 32P
T2 sequence (P10193 535-851, one chain of several): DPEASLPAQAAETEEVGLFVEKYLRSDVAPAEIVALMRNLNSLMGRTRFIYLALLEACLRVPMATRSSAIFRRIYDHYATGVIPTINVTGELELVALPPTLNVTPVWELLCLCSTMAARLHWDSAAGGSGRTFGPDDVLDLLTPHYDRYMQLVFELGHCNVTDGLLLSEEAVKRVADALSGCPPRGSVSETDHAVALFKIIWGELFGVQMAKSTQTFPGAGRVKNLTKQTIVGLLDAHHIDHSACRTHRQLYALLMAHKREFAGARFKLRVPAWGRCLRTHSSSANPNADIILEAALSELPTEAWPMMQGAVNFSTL

[7] = molecular target: T1, LacR (lac repressor); assay: EMSA; displaced by 21x; conditions: chain copies: 4; label: 32P
[8] = molecular target: T2, GST-UL9 (UL9 C-terminal DNA-binding …); assay: EMSA; 10 nM GST-UL9, 20 mM HEPES pH 7.5, 50 mM KCl, RT; displaced by 21x; conditions: tags: GST fusion, pGEX-UL9 (Genelabs); label: 32P

CC(C)S[C@@H]1O[C@H](CO)[C@H](O)[C@H](O)[C@H]1O [IPTG]
LacR displacement efficiency, 21x versus IPTG [1]: 21x appears to displace LacR more efficiently than IPTG

Cn1cc(NC(=O)c2cc(NC(=O)c3cc(NC=O)cn3C)cn2C)cc1C(=O)NCCC(=N)N [distamycin]
NF-kB displacement efficiency, 21x versus distamycin [2]: 21x displaces NF-kB more efficiently than distamycin

p5Gal/p5GalE GAL4 response element (5 tandem repeats)
activity ([3]; p5GalE control): 62 % of basal
activity ([4]; p5Gal, not activated significantly): 2 fold

p5UL/p5ULE UL9-21x response element (5 tandem repeats)
activity ([3]; p5ULE, HeLa): 5 % of basal
activity ([4]; p5UL): 24 fold

B1: lacO modified (dsDNA)
DNA 1: TTTTTTTTGTGAGCGGATAACAAAA
DNA 2: TTTTGTTATCCGCTCACAAAAAAAA
binding result [5]: binds

B2: YK 202RX (dsDNA)
DNA 1: CATGGACGCCACTGAGCCGTTTTTGTTCGCACTTTTTTTTGAGGCGAGTCGATGCACC
DNA 2: GGTGCATCGACTCGCCTCAAAAAAAAGTGCGAACAAAAACGGCTCAGTGGCGTCCATG
binding result [6]: binds

B3: lacO modified (symmetric) (dsDNA)
DNA 1: AAAAAATTGTGAGCGCTCACAATTTTTT
DNA 2: AAAAAATTGTGAGCGCTCACAATTTTTT
binding result [7]: binds

B4: YK 202RX-A (dsDNA)
DNA 1: CATGGACGCCACTGAGCCGTGTTCGCACTTTTTTTTGAGGCGAGTCGATGCACC
DNA 2: GGTGCATCGACTCGCCTCAAAAAAAAGTGCGAACACGGCTCAGTGGCGTCCATG
binding result [6]: binds

B5: YK 202LX (dsDNA)
DNA 1: CATGGACGCCACTGAGCCGTTTTTGTTCGCACTTGAGGCGAGTCGATGCACC
DNA 2: GGTGCATCGACTCGCCTCAAGTGCGAACAAAAACGGCTCAGTGGCGTCCATG
binding result [8]: binds
